# Measurements taken from US20190071714, “[…] FOR CLOSTRIDIUM […] DETECTION” (McMaster University, published 2019).
# Where two headings read alike, the source gives them in different places.
# T1: rGDH (recombinant glutamate dehydrogenase) (Clostridium difficile, UniProt P27346 SEQ:1-421)
# T1 sequence: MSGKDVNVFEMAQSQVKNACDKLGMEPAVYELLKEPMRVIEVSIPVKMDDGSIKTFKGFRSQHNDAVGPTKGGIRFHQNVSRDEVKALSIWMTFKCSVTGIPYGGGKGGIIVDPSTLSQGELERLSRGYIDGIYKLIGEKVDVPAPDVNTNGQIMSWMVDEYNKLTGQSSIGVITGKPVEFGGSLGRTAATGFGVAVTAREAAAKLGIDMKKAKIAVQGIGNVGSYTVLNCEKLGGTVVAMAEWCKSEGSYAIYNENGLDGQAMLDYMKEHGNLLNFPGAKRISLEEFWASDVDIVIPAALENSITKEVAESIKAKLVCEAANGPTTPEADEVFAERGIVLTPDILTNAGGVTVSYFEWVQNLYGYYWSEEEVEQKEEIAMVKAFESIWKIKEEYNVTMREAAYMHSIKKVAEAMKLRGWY
# B1: anti-G3 (anti-GDH3) (ssDNA)
# DNA: CAGGTCCATCGAGTGGTAGGATGCAGCGGACAGTGTGGGACCATCGCTGCGGATGTATGAATCGCACTGCTCCTGAACGTAC
# B2: anti-G1 (anti-GDH1) (ssDNA)
# DNA: CAGGTCCATCGAGTGGTAGGAGGAGGTATTTAGTGCCAAGCCATCTCAAACGACGTCTGAGTCGCACTGCTCCTGAACGTAC
# B3: anti-G1-T3 (ssDNA)
# DNA: AGGTATTTAGTGCCAAGCCATCTCAAACGACGTCTGAGTCGCACTGCTCCTG
# B4: anti-G7 (anti-GDH7) (ssDNA)
# DNA: CAGGTCCATCGAGTGGTAGGACCCAACCCACGATGCGCAAGAGGAATGCAGCCTACCAGCATCGCACTGCTCCTGAACGTAC
# B5: anti-G1-T1 (ssDNA)
# DNA: TAGGAGGAGGTATTTAGTGCCAAGCCATCTCAAACGACGTCTGAGTCGCACTGCTCCTG
# B6: FAM-anti-GDH1-T1 (ssDNA)
# DNA: B5 DNA
# Legend:
# [1] = target: T1, rGDH (recombinant glutamate …); assay: pulldown; […]; PBS pH 7.6, room temperature; details: tags: C-terminal His6; expressed in E. coli; Pro-Lab Diagnostics
# [2] = target: T1, rGDH (recombinant glutamate …); assay: pulldown; details: tags: C-terminal His6; expressed in E. coli; Pro-Lab Diagnostics
# [3] = target: T1, rGDH (recombinant glutamate …); assay: pulldown; […]; 1x PBS, 150 mM NaCl, 0.02% Tween-20, pH 7.6, room temperature; details: tags: C-terminal His6; expressed in E. coli; Pro-Lab Diagnostics
# [4] = target: T1, rGDH (recombinant glutamate …); assay: pulldown; 20 nM DNA, rGDH beads; decreased; details: tags: C-terminal His6; expressed in E. coli; Pro-Lab Diagnostics
# [5] = target: T1, rGDH (recombinant glutamate …); assay: pulldown; 20 nM DNA, rGDH beads; details: tags: C-terminal His6; expressed in E. coli; Pro-Lab Diagnostics
# [6] = target: T1, rGDH (recombinant glutamate …); assay: EMSA; […]; 1x PBS, 150 mM NaCl, 0.02% Tween-20, pH 7.6; […]; details: tags: C-terminal His6; expressed in E. coli; Pro-Lab Diagnostics
# [7] = target: T2, BSA (UniProt P02769 P02769:25-607); assay: EMSA; 10 nM protein; details: tags: Sigma
# T2 sequence (P02769 25-607, one chain of several): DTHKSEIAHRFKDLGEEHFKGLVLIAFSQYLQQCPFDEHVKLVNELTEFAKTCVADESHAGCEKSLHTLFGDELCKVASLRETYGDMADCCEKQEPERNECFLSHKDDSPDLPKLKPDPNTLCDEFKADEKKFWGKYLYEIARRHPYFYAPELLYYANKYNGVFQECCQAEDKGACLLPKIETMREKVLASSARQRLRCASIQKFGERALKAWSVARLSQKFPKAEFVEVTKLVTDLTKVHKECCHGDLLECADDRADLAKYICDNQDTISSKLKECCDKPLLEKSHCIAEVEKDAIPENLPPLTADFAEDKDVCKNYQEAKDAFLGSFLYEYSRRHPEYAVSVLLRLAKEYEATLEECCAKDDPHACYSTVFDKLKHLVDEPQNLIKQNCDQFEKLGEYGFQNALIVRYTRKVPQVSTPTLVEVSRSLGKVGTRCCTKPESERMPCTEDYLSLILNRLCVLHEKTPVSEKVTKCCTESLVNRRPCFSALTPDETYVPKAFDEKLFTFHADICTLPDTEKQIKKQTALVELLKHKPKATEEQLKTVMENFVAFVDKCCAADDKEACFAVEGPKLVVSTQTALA
# Description: The truncated aptamer, anti-GDH-T1, was then radioactively labeled at the 5′ end and tested for binding to the rGDH target by EMSA assays.^{39,40} A typical image of an EMSA result is shown in FIG. 3A. It was observed that the electrophoretic mobility of the protein-aptamer complex was typically less than that of the free aptamer. The fractional saturation of bound aptamer was calculated as a function of rGDH concentration (FIG. 3B). […] The specificity was also tested by EMSA. No obvious band was observed when using proteins such as BSA, thrombin and IgG (FIG. 8).
# Binding reactions were performed in 20 μL of 1× binding buffer containing 3 nM 32P-labeled anti-GDH1-T1 aptamer and various concentrations of rGDH (0 to 1000 nM). After incubation for 30 min, the reaction mixtures were spiked with 6× loading buffer, and then loaded into the wells of a nondenaturing polyacrylamide gel (8%) at 4° C. Visualization of DNA bands was done using a Typhoon 9200 imager and the resulting bands were quantified with ImageQuant software.
# [8] = target: T3, thrombin (Homo sapiens, UniProt P00734;P00734 P00734:328-363,P00734:364-622); assay: EMSA
# [9] = target: T2, BSA; assay: RGO fluorescence sensor, 300 nM protein, no significant response; details: tags: Sigma
# Description: The detection limit (defined as 3σ/slope, with a being the standard deviation of the blank samples) of the sensor was determined to be 1 nM (FIG. 5A). The selectivity of the aptamer-graphene biosensing system was also evaluated by using non-target proteins (BSA, thrombin, IgG, TcdA and TcdB).
# In a typical assay, 20 μL of 5× binding buffer (5×PBS, containing 750 mM NaCl and 0.1% Tween-20, pH 7.6), 2 μL of FAM-labeled (5′ end) aptamer probe (7 μM), 30 μL of RGO solution (100 μg/mL) and 48 μL of water were first mixed and incubated in a micro-centrifuge tube for 30 min. Then, 10 μL of 1% BSA was added to block the surface. After incubating for 20 min, 5 μL of nGDH with different dilutions was added to the mixture and time-dependent fluorescence emission measurements were performed at λₑₓ/λₑₘ=494/518 nm. The emission intensity obtained at a reaction time of 60 min was plotted against nGDH concentration to obtain a limit of detection. A similar experiment was carried out using non-target proteins (BSA, human thrombin, human IgG, TcdA and TcdB from C. difficile) to evaluate aptamer selectivity.
# [10] = target: TcdB (toxin B) (Clostridium difficile, UniProt P18177 SEQ:2-2366)
# [11] = target: T3, thrombin
# [12] = target: TcdA (toxin A) (Clostridium difficile, UniProt P16154 SEQ:1-2710)
# TcdA (toxin A), sequence (P16154 whole entry): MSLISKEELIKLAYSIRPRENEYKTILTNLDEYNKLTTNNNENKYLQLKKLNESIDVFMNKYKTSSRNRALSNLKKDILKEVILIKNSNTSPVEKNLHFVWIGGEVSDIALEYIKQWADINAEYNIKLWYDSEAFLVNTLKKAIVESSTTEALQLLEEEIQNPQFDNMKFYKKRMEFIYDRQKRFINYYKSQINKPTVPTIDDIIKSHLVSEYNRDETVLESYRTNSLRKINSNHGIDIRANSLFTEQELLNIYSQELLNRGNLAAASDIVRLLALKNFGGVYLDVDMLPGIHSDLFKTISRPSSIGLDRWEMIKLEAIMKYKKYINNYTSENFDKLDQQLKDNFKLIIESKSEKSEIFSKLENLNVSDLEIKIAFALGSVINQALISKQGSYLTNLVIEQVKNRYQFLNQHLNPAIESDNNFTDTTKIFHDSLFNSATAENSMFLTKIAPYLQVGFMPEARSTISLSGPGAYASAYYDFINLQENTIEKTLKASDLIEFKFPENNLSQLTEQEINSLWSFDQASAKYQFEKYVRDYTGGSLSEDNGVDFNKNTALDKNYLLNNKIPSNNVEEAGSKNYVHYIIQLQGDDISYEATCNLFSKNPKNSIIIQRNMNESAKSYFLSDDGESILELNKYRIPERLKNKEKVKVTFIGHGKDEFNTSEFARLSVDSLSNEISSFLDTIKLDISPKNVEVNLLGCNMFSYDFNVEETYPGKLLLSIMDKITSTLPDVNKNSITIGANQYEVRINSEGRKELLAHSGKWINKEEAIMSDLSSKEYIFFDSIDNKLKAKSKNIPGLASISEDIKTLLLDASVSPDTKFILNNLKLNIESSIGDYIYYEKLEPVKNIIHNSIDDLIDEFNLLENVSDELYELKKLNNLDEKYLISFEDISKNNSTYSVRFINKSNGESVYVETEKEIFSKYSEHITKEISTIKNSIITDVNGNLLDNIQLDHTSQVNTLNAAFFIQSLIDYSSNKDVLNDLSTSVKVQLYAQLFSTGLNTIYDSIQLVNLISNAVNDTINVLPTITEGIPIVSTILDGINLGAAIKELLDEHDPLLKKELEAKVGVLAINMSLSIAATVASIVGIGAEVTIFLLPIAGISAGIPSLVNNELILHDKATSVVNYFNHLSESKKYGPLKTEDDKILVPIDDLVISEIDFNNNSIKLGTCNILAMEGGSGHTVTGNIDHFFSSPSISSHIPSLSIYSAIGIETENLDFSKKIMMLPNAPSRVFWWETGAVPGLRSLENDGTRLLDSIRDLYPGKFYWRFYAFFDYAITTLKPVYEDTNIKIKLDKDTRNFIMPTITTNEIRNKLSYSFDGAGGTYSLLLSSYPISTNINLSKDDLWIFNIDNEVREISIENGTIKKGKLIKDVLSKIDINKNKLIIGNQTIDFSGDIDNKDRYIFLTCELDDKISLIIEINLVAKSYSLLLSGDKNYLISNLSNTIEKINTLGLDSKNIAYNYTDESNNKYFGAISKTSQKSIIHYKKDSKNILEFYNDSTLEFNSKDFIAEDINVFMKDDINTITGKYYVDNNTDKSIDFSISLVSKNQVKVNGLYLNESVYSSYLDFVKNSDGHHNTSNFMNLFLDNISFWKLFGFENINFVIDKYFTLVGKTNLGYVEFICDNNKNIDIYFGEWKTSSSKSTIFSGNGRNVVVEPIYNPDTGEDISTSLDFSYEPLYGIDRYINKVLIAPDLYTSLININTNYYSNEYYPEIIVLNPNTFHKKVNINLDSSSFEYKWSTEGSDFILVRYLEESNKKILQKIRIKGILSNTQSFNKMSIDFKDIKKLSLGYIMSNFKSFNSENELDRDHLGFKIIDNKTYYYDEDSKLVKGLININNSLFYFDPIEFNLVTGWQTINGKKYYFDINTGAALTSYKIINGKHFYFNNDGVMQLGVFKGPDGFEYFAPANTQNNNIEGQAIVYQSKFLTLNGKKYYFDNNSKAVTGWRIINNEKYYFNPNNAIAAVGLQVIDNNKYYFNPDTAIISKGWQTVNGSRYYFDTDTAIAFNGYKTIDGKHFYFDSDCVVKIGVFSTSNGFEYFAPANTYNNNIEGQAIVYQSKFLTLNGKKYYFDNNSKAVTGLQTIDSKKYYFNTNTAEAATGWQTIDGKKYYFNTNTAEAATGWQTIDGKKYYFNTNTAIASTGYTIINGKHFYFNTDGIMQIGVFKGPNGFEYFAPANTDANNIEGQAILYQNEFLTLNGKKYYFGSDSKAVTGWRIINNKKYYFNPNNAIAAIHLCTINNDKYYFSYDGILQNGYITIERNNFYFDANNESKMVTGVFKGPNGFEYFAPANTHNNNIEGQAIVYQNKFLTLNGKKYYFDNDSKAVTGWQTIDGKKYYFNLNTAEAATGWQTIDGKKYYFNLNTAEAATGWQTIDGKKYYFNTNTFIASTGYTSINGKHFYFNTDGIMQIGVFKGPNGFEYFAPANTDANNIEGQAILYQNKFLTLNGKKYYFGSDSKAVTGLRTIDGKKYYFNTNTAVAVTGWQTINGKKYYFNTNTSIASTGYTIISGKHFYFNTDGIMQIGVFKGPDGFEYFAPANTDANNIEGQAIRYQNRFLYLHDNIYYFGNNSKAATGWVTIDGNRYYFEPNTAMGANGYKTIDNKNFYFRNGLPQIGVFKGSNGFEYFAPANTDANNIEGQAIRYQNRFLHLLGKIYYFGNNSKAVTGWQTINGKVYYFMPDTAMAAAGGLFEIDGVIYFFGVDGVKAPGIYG
binder,measurement,setting,value
B1,Kd,[1],5.6 nM
AGGTATTTAGTGCCAAGCCATCTCAAACGACGTCTGAGTCGCACTGCT (ssDNA) [anti-G1-T4],binding result,[2],binds
B2,Kd,[3],3.1 nM
B3,binding result,[4],binds
TAGTGCCAAGCCATCTCAAACGACGTCTGAGTCGCACTG (ssDNA) [anti-G1-T7],binding result,[5],no binding
B4,Kd,[1],4.6 nM
AGCCATCTCAAACGACGTCTGAGTCGCA (ssDNA) [anti-G1-T6],binding result,[5],no binding
AGGTATTTAGTGCCAAGCCATCGTCGCACTGCTCCTG (ssDNA) [anti-G1-T8],binding result,[5],no binding
B5,Kd,[6],4.5 nM
same,binding result,[7],no binding
same,binding result,[8],no binding
B6,binding result,[9],no binding
same,binding result,[10],no binding
same,binding result,[11],no binding
same,binding result,[12],no binding
